Like-named read-outs stand apart in the source and are kept apart here. Where no end group is shown, it is not given here.
Key:
[1] = molecular target: T1, Kv1.3 (Homo sapiens, UniProt P22001); experiment: Human whole blood assay: thapsigargin-induced IL-2 and IFN-γ secretion; format: cell-based; conditions: for IC50: human whole blood; for Potency Relative to ShK (WB, IL2): ratio of WB IL-2 IC50 to that of ShK(1-35)
T1 construct: endogenous in cells; host or cells: T cells in 50% human whole blood from multiple donors
T1 sequence (P22001 whole entry): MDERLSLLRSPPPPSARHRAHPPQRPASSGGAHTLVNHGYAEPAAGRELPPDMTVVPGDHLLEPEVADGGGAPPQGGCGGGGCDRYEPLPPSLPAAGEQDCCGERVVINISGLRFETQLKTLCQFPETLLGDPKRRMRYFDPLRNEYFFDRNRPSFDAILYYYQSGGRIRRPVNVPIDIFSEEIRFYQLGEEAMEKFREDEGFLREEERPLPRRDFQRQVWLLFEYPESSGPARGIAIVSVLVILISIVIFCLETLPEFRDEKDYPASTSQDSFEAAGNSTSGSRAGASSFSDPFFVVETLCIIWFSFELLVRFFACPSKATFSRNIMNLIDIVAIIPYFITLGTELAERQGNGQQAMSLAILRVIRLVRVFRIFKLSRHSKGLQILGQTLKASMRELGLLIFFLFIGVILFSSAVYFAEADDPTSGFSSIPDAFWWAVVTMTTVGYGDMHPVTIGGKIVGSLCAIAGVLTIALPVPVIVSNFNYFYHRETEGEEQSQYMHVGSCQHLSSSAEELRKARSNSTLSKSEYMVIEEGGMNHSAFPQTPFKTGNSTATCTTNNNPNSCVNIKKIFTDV
Procedure: An ex vivo assay was employed to examine impact of toxin peptide analog Kv1.3 inhibitors on secretion of IL-2 and IFN-γ. […] In brief, 50% human whole blood was stimulated with thapsigargin to induce store depletion, calcium mobilization and cytokine secretion. […] After 48 hours at 37° C. and 5% CO2, conditioned medium was collected and the level of cytokine secretion was determined using a 4-spot electrochemiluminescent immunoassay from MesoScale Discovery. […] Kv1.3 is the major voltage-gated potassium channel present on T cells. Allowing for K^+ efflux, Kv1.3 provides the driving force for continued Ca^2+ influx which is necessary for the sustained elevation in intracellular calcium needed for efficient T cell activation and cytokine secretion. […] Therefore, we employed a bioassay whereby the bioactivity of Kv1.3 inhibitors is assessed by examining their ability to block thapsigargin-induced cytokine secretion from T cells in human whole blood.

[2] = molecular target: T2, huIL-17R (Homo sapiens, UniProt Q96F46); experiment: BIAcore solution equilibrium binding assay to huIL-17R (16429 immobilized); conditions: for IL-17R binding capability: 10 nM, 100 nM and 1000 nM antibody incubated with 10 nM IL-17R (FIG. 2A); for IL-17R binding activity: 30 μM antibody with 30 nM IL-17R (FIG. 2B)
T2 construct: FLAG (the F of FpH); polyHis (the pH of FpH)
T2 sequence (Q96F46 with tags, fused parts or gaps): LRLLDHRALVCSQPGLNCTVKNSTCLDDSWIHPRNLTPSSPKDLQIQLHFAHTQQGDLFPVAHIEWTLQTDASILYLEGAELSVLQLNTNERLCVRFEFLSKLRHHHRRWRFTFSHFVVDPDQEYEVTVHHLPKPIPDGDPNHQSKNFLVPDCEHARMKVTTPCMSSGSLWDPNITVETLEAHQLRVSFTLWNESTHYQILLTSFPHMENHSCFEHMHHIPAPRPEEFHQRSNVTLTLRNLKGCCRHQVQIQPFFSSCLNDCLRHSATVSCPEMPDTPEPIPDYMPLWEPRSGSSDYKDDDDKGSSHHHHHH
Procedure: Antibody 16429 was immobilized to a CM5 sensor chip, and 10 nM of IL-17R in the absence of antibody was used to establish the 100% binding signal of […] that is free of antibody binding in solution. In FIG. 2A, 10 nM, 100 nM and 1000 nM of indicated antibody samples were incubated with the 10 nM IL-17R to determine antibody binding in solution. In FIG. 2B, 30,000 nM of the antibody samples were incubated with 30 nM IL-17R to determine antibody binding in solution. In FIGS. 2A-B, The decreased binding signal of IL-17R after the antibody incubation indicates the binding of the antibody to IL-17R in solution.
A reference antigen binding protein (e.g., Antibody 16429 for human IL-17R or Antibody 16449 for human TR2) is immobilized to a BIACore® 2000, research grade sensor chip CM5 surface according to manufacturer's instructions (BIACore, Inc., Piscataway, N.J.). Carboxyl groups on the sensor chip surfaces are activated by injecting 60 μL of a mixture containing 0.2 M N-ethyl-N′-(dimethylaminopropyl) carbodiimide (EDC) and 0.05 M N-hydroxysuccinimide (NHS). The reference antigen binding protein is diluted in 10 mM sodium acetate, pH 4.0 and injected over the activated chip surface at 30 μL/min for 6 minutes. Excess reactive groups on the surfaces are deactivated by injecting 60 μL of 1 M ethanolamine. The final immobilized level is typically approximately 6600 resonance units (RU). Soluble target antigen (e.g., 10 nM of soluble human IL-17R or 30 nM of soluble human TR2) in the absence of soluble antigen binding protein (e.g., antibody) is used to establish the 100% binding signal to the fixed reference antigen binding protein (e.g., the positive control antibody). The decreased binding signal of the target antigen after incubation of the test immunoglobulin indicates its level of binding to the target antigen in solution.
The lead candidates were then selected based on lack of binding to the IL-17R extracellular domain as determined by BIAcore analysis. Antibody 16429 is a human antibody that specifically binds to huIL-17R. A solution equilibrium binding assay was developed to assess the binding activity of a set of antibodies to huIL-17R. Antibody 16429 was immobilized to a BIACore® 2000, research grade sensor chip CM5 surface according to manufacturer's instructions (BIACore, Inc., Piscataway, N.J.). Briefly, carboxyl groups on the sensor chip surfaces were activated by injecting 60 μL of a mixture containing 0.2 M N-ethyl-N′-(dimethylaminopropyl) carbodiimide (EDC) and 0.05 M N-hydroxysuccinimide (NHS). Antibody 16429 was diluted in 10 mM sodium acetate, pH 4.0 and injected over the activated chip surface at 30 μL/min for 6 minutes. Excess reactive groups on the surfaces were deactivated by injecting 60 μL of 1 M ethanolamine. The final immobilized level was approximately 6600 resonance units (RU). As represented in FIG. 2A, 10 nM of IL-17R in the absence of soluble antibody was used to establish the 100% binding signal of IL-17R to the fixed 16429 antibody. To determine antibody binding in solution, 10 nM, 100 nM and 1000 nM of the antibody samples were incubated with the 10 nM IL-17R. The decreased binding signal of IL-17R after the antibody incubation indicates the binding of the antibody to IL-17R in solution.

[3] = molecular target: T3, IL-17R (Homo sapiens, UniProt Q96F46); experiment: Cell based activity assay: IL-17-induced GRO-α release from human foreskin fibroblasts (sandwich ELISA); conditions: HFF, 5 ng/ml IL-17; 0.1, 1 and 10 μM antibody (FIG. 3)
T3 construct: endogenous in cells; host or cells: human foreskin fibroblasts (HFF)
T3 sequence (Q96F46 33-866): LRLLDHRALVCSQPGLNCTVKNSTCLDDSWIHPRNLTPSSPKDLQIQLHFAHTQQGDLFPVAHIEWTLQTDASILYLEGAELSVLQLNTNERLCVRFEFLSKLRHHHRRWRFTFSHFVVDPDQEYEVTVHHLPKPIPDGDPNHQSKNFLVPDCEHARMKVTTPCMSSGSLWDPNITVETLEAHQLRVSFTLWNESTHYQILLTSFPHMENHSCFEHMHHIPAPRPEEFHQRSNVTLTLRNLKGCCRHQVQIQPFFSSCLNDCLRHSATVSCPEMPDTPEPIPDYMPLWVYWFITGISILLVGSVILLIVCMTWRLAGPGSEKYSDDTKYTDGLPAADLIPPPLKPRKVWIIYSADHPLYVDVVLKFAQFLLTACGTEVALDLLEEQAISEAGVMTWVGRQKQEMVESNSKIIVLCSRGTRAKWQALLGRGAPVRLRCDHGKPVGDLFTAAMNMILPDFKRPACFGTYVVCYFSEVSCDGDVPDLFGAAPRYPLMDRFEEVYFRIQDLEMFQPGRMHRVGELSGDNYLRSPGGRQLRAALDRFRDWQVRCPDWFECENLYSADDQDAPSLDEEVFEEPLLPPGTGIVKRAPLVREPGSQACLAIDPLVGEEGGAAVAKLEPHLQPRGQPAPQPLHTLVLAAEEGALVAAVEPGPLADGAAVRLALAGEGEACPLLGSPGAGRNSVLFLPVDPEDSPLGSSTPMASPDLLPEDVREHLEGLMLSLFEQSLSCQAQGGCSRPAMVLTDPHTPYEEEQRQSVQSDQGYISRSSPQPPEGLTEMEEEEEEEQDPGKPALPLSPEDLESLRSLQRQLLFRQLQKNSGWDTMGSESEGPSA
Procedure: The conditioned cell medium was then assessed for GRO-α levels using a GRO-α sandwich ELISA.
Interaction of IL-17 with the IL-17R on cells induces the production of various factors, including growth-related oncogene alpha (GRO-α), from these cells. A cell-based characterization assay was developed to measure GRO-α released using sandwich ELISA. In this ELISA, a GRO-α capture antibody is utilized to bind GRO-α, and then a biotinylated GRO-α detection antibody is used to detect the captured protein. Streptavidin conjugated to horseradish peroxidise (HRP) is then added to detect the amount of biotinylated GRO-α detection antibody bound. The amount of HRP bound is measured by evaluation of absorbance at 450 nm. An increase in absorbance at 450 nm is indicative of an increase in the amount of GRO-α produced. In this assay, human foreskin fibroblasts (HFF) are incubated with 5 ng/ml IL-17 and 0.1 μM, 1 μM and 10 μM of antibody samples. The conditioned cell medium is then harvested and processed for assessment of GRO-α levels using a GRO-α sandwich ELISA.

“20 kDa-PEG-ShK: N-terminally 20 kDa PEGylated ShK, SEQ ID NO:380” showed an IC50 ([1]; IFNg, read-out: WB (IFNg) IC50) of 0.84 nM and an IC50 ([1]; IL-2, read-out: WB (IL-2) IC50) of 0.38 nM.

With “Bivalent Fc-L10-ShK[1-35] homodimer: IgG1 Fc peptibody, Example 1 of WO2008/088422 A2 (GGGGSGGGGSRSCIDTIPKSRCTAFQCKHSMKYRLSFCRKTCGTC; ends and bridges not checked; also: Fc fusion homodimer, Fc domain not in chain)” the IC50 ([1]; IFNg, read-out: WB (IFNg) IC50) was 0.32 nM, the IC50 ([1]; IL-2, read-out: WB (IL-2) IC50) was 0.386 nM and the “Potency Relative to ShK (WB, IL2)” value [1] was 5.76.

In the case of “Bivalent Fc-L10-ShK[2-35] homodimer: IgG1 Fc peptibody, Example 2 of WO2008/088422 A2 (GGGGSGGGGSSCIDTIPKSRCTAFQCKHSMKYRLSFCRKTCGTC; ends and bridges not checked; also: Fc fusion homodimer, Fc domain not in chain)”, the IC50 ([1]; IFNg, read-out: WB (IFNg) IC50) is reported as 2.29 nM, the IC50 ([1]; IL-2, read-out: WB (IL-2) IC50) is reported as 0.585 nM and the “Potency Relative to ShK (WB, IL2)” value [1] is reported as 8.73.

B1: 16438 (antibody, V domains shown)
VH: QVQLVQSGAEVKKPGASVKVSCKASGYTFTRYGISWVRQAPGQGLEWMGWISTYSGNTNYAQKLQGRVTMTTDTSTSTAYMELRSLRSDDTAVYYCARRQQYFDYWGQGTLVTVSS
VL: EIVMTQSPATLSVSPGERATLSCRASQSVSSNLAWFQQKPGQAPRLLIYDASTRATGVPARFSGSGSGTEFTLTISSLQSEDFAVYYCQQYDNWPLTFGGGTKVEIK
With B1 the IL-17R binding capability [2] was “substantial reduction in IL-17R binding capability”, the IL-17R binding activity [2] was “no significant IL-17R binding activity” and the “blocking activity on IL-17-induced GRO-α production” value (shortened to “blocking activity”) [3] was “no significant blocking activity”.

B2: 16439 (antibody, V domains shown)
VH: QVQLVQSGAEVKKPGASVKVSCKASGYTFTRYGISWVRQAPGQGLEWMGWISTYSGNTNYAQKLQGRVTMTTDTSTSTAYMELRSLRSDDTAVYYCARRQQYFDYWGQGTLVTVSS
VL: EIVMTQSPATLSVSPGERATLSCRASQSVSSNLAWFQQKPGQAPRLLIYDASTRATGVPARFSGSGSGTEFTLTISSLQSEDFAVYYCQQYDNAPLTFGGGTKVEIK
In the case of B2, the IL-17R binding capability [2] is reported as “substantial reduction in IL-17R binding capability”, the IL-17R binding activity [2] is reported as “no significant IL-17R binding activity” and the “blocking activity” value [3] is reported as “no significant blocking activity”.

B3: 16440 (antibody, V domains shown)
VH: QVQLVQSGAEVKKPGASVKVSCKASGYTFTRYGISWVRQAPGQGLEWMGWISTYSGNTNYAQKLQGRVTMTTDTSTSTAYMELRSLRSDDTAVYYCARAQQYFDYWGQGTLVTVSS
VL: EIVMTQSPATLSVSPGERATLSCRASQSVSSNLAWFQQKPGQAPRPLIYDASTRATGVPARFSGSGSGTDFTLTISSLQSEDFAVYYCQQYDNWPLTFGGGTKVEIK
For B3, the IL-17R binding capability [2] was “substantial reduction in IL-17R binding capability”, the IL-17R binding activity [2] was “no significant IL-17R binding activity” and the “blocking activity” value [3] was “no significant blocking activity”.

B4: 16441 (antibody, V domains shown)
VH: QVQLVQSGAEVKKPGASVKVSCKASGYTFTRYGISWVRQAPGQGLEWMGWISTYSGNTNYAQKLQGRVTMTTDTSTSTAYMELRSLRSDDTAVYYCARAQQYFDYWGQGTLVTVSS
VL: EIVMTQSPATLSVSPGERATLSCRASQSVSSNLAWFQQKPGQAPRLLIYDASTRATGVPARFSGSGSGTEFTLTISSLQSEDFAVYYCQQYDNWPLTFGGGTKVEIK
For B4, the IL-17R binding capability [2] was “substantial reduction in IL-17R binding capability”, the IL-17R binding activity [2] was “no significant IL-17R binding activity” and the “blocking activity” value [3] was “no significant blocking activity”.

Source: patent publication US9803019B2, “Carrier immunoglobulins and uses thereof” (Amgen Inc., priority 2010, dated 2017)
